Data on 7 molecules can be found in patent US20260266848A1, “COMPOSITIONS AND METHODS FOR DIAGNOSING AND TREATING DYSTONIA” (Duke University, priority 2023, published 2026).

To fix the notation:
B1: Add1 (protein, UniProt P35611 1-737, looked up)
Alpha-adducin: MNGDSRAAVVTSPPPTTAPHKERYFDRVDENNPEYLRERNMAPDLRQDFNMMEQKKRVSMILQSPAFCEELESMIQEQFKKGKNPTGLLALQQIADFMTTNVPNVYPAAPQGGMAALNMSLGMVTPVNDLRGSDSIAYDKGEKLLRCKLAAFYRLADLFGWSQLIYNHITTRVNSEQEHFLIVPFGLLYSEVTASSLVKINLQGDIVDRGSTNLGVNQAGFTLHSAIYAARPDVKCVVHIHTPAGAAVSAMKCGLLPISPEALSLGEVAYHDYHGILVDEEEKVLIQKNLGPKSKVLILRNHGLVSVGESVEEAFYYIHNLVVACEIQVRTLASAGGPDNLVLLNPEKYKAKSRSPGSPVGEGTGSPPKWQIGEQEFEALMRMLDNLGYRTGYPYRYPALREKSKKYSDVEVPASVTGYSFASDGDSGTCSPLRHSFQKQQREKTRWLNSGRGDEASEEGQNGSSPKSKTKWTKEDGHRTSTSAVPNLFVPLNTNPKEVQEMRNKIREQNLQDIKTAGPQSQVLCGVVMDRSLVQGELVTASKAIIEKEYQPHVIVSTTGPNPFTTLTDRELEEYRREVERKQKGSEENLDEAREQKEKSPPDQPAVPHPPPSTPIKLEEDLVPEPTTGDDSDAATFKPTLPDLSPDEPSEALGFPMLEKEEEAHRPPSPTEAPTEASPEPAPDPAPVAEEAAPSAVEEGAAADPGSDGSPGKSPSKKKKKFRTPSFLKKSKKKSDS
B2: Plekho2 (protein, UniProt Q8K124 1-495, looked up)
Pleckstrin homology …: MEEESIKEGSEKPRGARTADKAGWIKKSSGGLLGLWKDRYLLLCQAQLLVYENEDEQKCVETVELGSYEKCQDLRTLLKRKHHRFILLRSPGNKVSDIKFQAPSGEEKESWIKALNEGINRGKNKAFDEVKVDKTCALEHVTRNRVRGGQRRRPPTRIHLKEVASAASDGLSRLDLDVPDSGPPVFAPLSDISEDQPQEPPRALMPPVKPSPGPETSAVEDSKETPAGERALTPDSASSGANPESQEDAETPAKEDSDVKSLPNSTLSEKLKVSWENPSPEKPSAPESAQLSSSETPEATPRESKKPPAPPPKILSEKMKACMSGVDASGSSQSSEAPETTSPEPTQVSVNGMDDGPESALQAMGIPGPAPEDAAASPALPFSDLPSQFHPRSSSLGDLLRESPQHPRLPKEKLYRAQLEVKVASKQTEKLLNQVLGSEPPPVCAESLLSQAVEQLRQATQVLQEMRDLGELNQETPGLVQKRKELVTLYRRSAP
B3: Scfd1 (protein, UniProt Q8BRF7 1-639, looked up)
Sec1 family domain-containing …: MVGSKMAATASIRERQTVALKRMLNFNVPHVKNSTGEPVWKVLIYDRFGQDIISPLLSVKELRDMGITLHLLLHSDRDPIPDVPAVYFVMPTEENIDRLCQDLRNQLYESYYLNFISAISRSKLEDIANAALAASAVTQVAKVFDQYLNFITLEDDMFVLCNQNKELVSYRAINRPDITDTEMETVMDTIVDSLFCFFVTLGAVPIIRCSRGTAAEMVAVKLDKKLRENLRDARNSLFTGDPLGTGQFSFQRPLLVLVDRNIDLATPLHHTWTYQALVHDVLDFHLNRVNLEESTGVENSPAGARPKRKNKKSYDLTPVDKFWQKHKGSPFPEVAESVQQELESYRAQEDEVKRLKSIMGLEGEDEGAISMLSDNTAKLTSAVSSLPELLEKKRLIDLHTNVATAVLEHIKARKLDVYFEYEEKIMSKTTLDKSLLDVISDPDAGTPEDKMRLFLIYYISAQQAPSEVDLEQYKKALTDAGCNLSPLQYIKQWKAFAKMASTPASYGNTTTKPMGLLSRVMNTGSQFVMEGVKNLVLKQQNLPVTRILDNLMEMKSNPETDDYRYFDPKMLRSNDSSVPRNKSPFQEAIVFVVGGGNYIEYQNLVDYIKAKQGKHILYGCSEIFNATQFIKQLSQLGQK
B4: Dbn1 (protein, UniProt Q16643 2-649, looked up)
Drebrin: AGVSFSGHRLELLAAYEEVIREESAADWALYTYEDGSDDLKLAASGEGGLQELSGHFENQKVMYGFCSVKDSQAALPKYVLINWVGEDVPDARKCACASHVAKVAEFFQGVDVIVNASSVEDIDAGAIGQRLSNGLARLSSPVLHRLRLREDENAEPVGTTYQKTDAAVEMKRINREQFWEQAKKEEELRKEEERKKALDERLRFEQERMEQERQEQEERERRYREREQQIEEHRRKQQTLEAEEAKRRLKEQSIFGDHRDEEEETHMKKSESEVEEAAAIIAQRPDNPREFFKQQERVASASAGSCDVPSPFNHRPGSHLDSHRRMAPTPIPTRSPSDSSTASTPVAEQIERALDEVTSSQPPPLPPPPPPAQETQEPSPILDSEETRAAAPQAWAGPMEEPPQAQAPPRGPGSPAEDLMFMESAEQAVLAAPVEPATADATEIHDAADTIETDTATADTTVANNVPPAATSLIDLWPGNGEGASTLQGEPRAPTPPSGTEVTLAEVPLLDEVAPEPLLPAGEGCATLLNFDELPEPPATFCDPEEVEGESLAAPQTPTLPSALEELEQEQEPEPHLLTNGETTQKEGTQASEGYFSQSQEEEFAQSEELCAKAPPPVFYNKPPEIDITCWDADPVPEEEEGFEGGD
B5: Psmd1 (protein, UniProt Q3TXS7 1-953, looked up)
26S proteasome non-ATPase …: MITSAAGIISLLDEEEPQLKEFALHKLNAVVNDFWAEISESVDKIEVLYEDEGFRSRQFAALVASKVFYHLGAFEESLNYALGAGDLFNVNDNSEYVETIIAKCIDHYTKQCVENADLPEGEKKPIDQRLEGIVNKMFQRCLDDHKYKQAIGIALETRRLDVFEKTILESNDVPGMLAYSLKLCMSLMQNKQFRNKVLRVLVKIYMNLEKPDFINVCQCLIFLDDPQAVSDILEKLVKEDNLLMAYQICFDLYESASQQFLSSVIQNLRTVGTPIASVPGSTNTGTVPGSEKDSDPMETEEKTASAVAGKTPDASPEPKDQTLKMIKILSGEMAIELHLQFLIRNNNTDLMILKNTKDAVRNSVCHTATVIANSFMHCGTTSDQFLRDNLEWLARATNWAKFTATASLGVIHKGHEKEALQLMATYLPKDTSPGSAYQEGGGLYALGLIHANHGGDIIDYLLNQLKNASNDIVRHGGSLGLGLAAMGTARQDVYDLLKTNLYQDDAVTGEAAGLALGLVMLGSKNAQAIEDMVGYAQETQHEKILRGLAVGIALVMYGRMEEADALIESLCRDKDPILRRSGMYTVAMAYCGSGNNKAIRRLLHVAVSDVNDDVRRAAVESLGFILFRTPEQCPSVVSLLSESYNPHVRYGAAMALGICCAGTGNKEAINLLEPMTNDPVNYVRQGALIASALIMIQQTEITCPKVNQFRQLYSKVINDKHDDVMAKFGAILAQGILDAGGHNVTISLQSRTGHTHMPSVVGVLVFTQFWFWFPLSHFLSLAYTPTCVIGLNKDLKMPKVQYKSNCKPSTFAYPAPLEVPKEKEKEKVSTAVLSITAKAKKKEKEKEKKEEEKMEVDEAEKKEEKEKKKEPEPNFQLLDNPARVMPAQLKVLSMTETCRYQPFKPLSIGGIIILKDTSEDVEELVEPVAAHGPKIEEEEQEPEPPEPFEYIDD
B6: Ddx5 (protein, UniProt Q61656 1-614, looked up)
Probable ATP-dependent RNA …: MSSYSSDRDRGRDRGFGAPRFGGSRTGPLSGKKFGNPGEKLVKKKWNLDELPKFEKNFYQEHPDLARRTAQEVDTYRRSKEITVRGHNCPKPVLNFYEANFPANVMDVIARQNFTEPTAIQAQGWPVALSGLDMVGVAQTGSGKTLSYLLPAIVHINHQPFLERGDGPICLVLAPTRELAQQVQQVAAEYCRACRLKSTCIYGGAPKGPQIRDLERGVEICIATPGRLIDFLECGKTNLRRTTYLVLDEADRMLDMGFEPQIRKIVDQIRPDRQTLMWSATWPKEVRQLAEDFLKDYIHINIGALELSANHNILQIVDVCHDVEKDEKLIRLMEEIMSEKENKTIVFVETKRRCDELTRKMRRDGWPAMGIHGDKSQQERDWVLNEFKHGKAPILIATDVASRGLDVEDVKFVINYDYPNSSEDYIHRIGRTARSTKTGTAYTFFTPNNIKQVSDLISVLREANQAINPKLLQLVEDRGSGRSRGRGGMKDDRRDRYSAGKRGGFNTFRDRENYDRGYSNLLKRDFGAKTQNGVYSAANYTNGSFGSNFVSAGIQTSFRTGNPTGTYQNGYDSTQQYGSNVANMHNGMNQQAYAYPLPQAAPMIGYPMPTGYSQ
B7: Capg (protein, UniProt P24452 1-352, looked up)
Macrophage-capping protein: MYTPIPQSGSPFPASVQDPGLHIWRVEKLKPVPIARESHGIFFSGDSYLVLHNGPEEASHLHLWIGQQSSRDEQGACAVLAVHLNTLLGERPVQHREVQGNESDLFMSYFPRGLKYYREGGVESAFHKTTSGARGAAIRKLYQVKGKKNIRATERPLSWDSFNTGDCFILDLGQNIFAWCGGKSNILERNKARDLALAIRDSERQGKAQVEIITDGEEPAEMIQVLGPKPALKEGNPEEDITADQTRPNAQAAALYKVSDATGQMNLTKVADSSPFASELLIPDDCFVLDNGLCAQIYIWKGRKANEKERQAALQVADGFISRMRYSPNTQVEILPQGRESPIFKQFFKNWK

The test system of the first experiment is DYT-TOR1A MEF EVs. In words: Quantitative LC-MS/MS proteomics of EVs from drug-treated DYT-TOR1A MEF cultures (ritonavir, salubrinal). Format: cell-based, mouse. Further details: key to RTV Corrective Direction / RTV Corrective Direction, Grwd1 / RTV Corrective Direction, Srrm2 / RTV Corrective Direction, Rbm17 / RTV Corrective Direction, Dcaf8 / RTV Corrective Direction, Edil3 / RTV Corrective Direction, Timp3 / RTV Corrective Direction, Heatr3 / RTV Corrective Direction, Brd4 / RTV Corrective Direction, P3h4 / RTV Corrective Direction, Pacsin3 / RTV Corrective Direction, Naa50 / RTV Corrective Direction, Lpar6 / RTV Corrective Direction, Ndrg1 / RTV Corrective Direction, Kntc1 / RTV Corrective Direction, Cdk11b / RTV Corrective Direction, Sumo1 / RTV Corrective Direction, Lsm4 / RTV Corrective Direction, Hmga2 / RTV Corrective Direction, Cstf1 / RTV Corrective Direction, Tes / RTV Corrective Direction, Sbno1 / RTV Corrective Direction, Unc119b / RTV Corrective Direction, Cfdp1 / RTV Corrective Direction, Sec61b: YES = protein abundance effect opposite to DYT/WT. Particulars: EV protein abundance, DYT + RTV (ritonavir) vs DYT, direction compared with DYT/WT.
B1: the “RTV Corrective Direction” value was “YES”.

Regarding B2, the “RTV Corrective Direction” value was “YES”.

B3: the “RTV Corrective Direction” value is reported as “YES”.

Consider B4, for which the “RTV Corrective Direction” value is “YES”.

On to B5, for which the “RTV Corrective Direction” value is reported as “YES”.

B6: the “RTV Corrective Direction” value is given as “YES”.

In the case of B7, the “RTV Corrective Direction” value is on record as “YES”.

The experiment is the same for the next values; noted with them: EV protein abundance, ritonavir (RTV)-treated DYT vs DYT.
Consider B1, for which the “DYT + RTV/DYT Cohen's d” value turned out to be 4.30.

Take B2: the “DYT + RTV/DYT Cohen's d” value is on record as −5.03.

Consider B3, for which the “DYT + RTV/DYT Cohen's d” value is 4.43.

Take B4: the “DYT + RTV/DYT Cohen's d” value is 4.58.

Turning to B5, the “DYT + RTV/DYT Cohen's d” value came out at 4.33.

Turning to B6, the “DYT + RTV/DYT Cohen's d” value was found to be 4.48.

Regarding B7, the “DYT + RTV/DYT Cohen's d” value worked out at 3.57.

For the next experiment, the system named is WT MEF EVs. In words: Quantitative LC-MS/MS proteomics of EVs from ISRIB-treated WT MEF cultures. Particulars: EV protein abundance, ISRIB-treated WT vs WT. Further details: key to ISRIB and DYT Parallel Direction / ISRIB and DYT Parallel Direction, Ctdsp1 / ISRIB and DYT Parallel Direction, Pcdh19 / ISRIB and DYT Parallel Direction, Tspan7 / ISRIB and DYT Parallel Direction, Myo1e / ISRIB and DYT Parallel Direction, Plpp3 / ISRIB and DYT Parallel Direction, Sh3bp4 / ISRIB and DYT Parallel Direction, Dnajc7 / ISRIB and DYT Parallel Direction, Drg1 / ISRIB and DYT Parallel Direction, Maea: YES = protein abundance effect similar to DYT/WT. Format: cell-based, mouse.
For B1, the “WT + ISRIB/WT Cohen's d” value is reported as 0.00.

For B2, the “WT + ISRIB/WT Cohen's d” value stood at 0.14.

Turning to B3, the “WT + ISRIB/WT Cohen's d” value is given as −2.48.

Consider B4, for which the “WT + ISRIB/WT Cohen's d” value is given as −3.18.

In the case of B5, the “WT + ISRIB/WT Cohen's d” value is listed as −0.65.

B6: the “WT + ISRIB/WT Cohen's d” value was −0.92.

B7: the “WT + ISRIB/WT Cohen's d” value is −0.61.

The same experiment, now with this note: EV protein abundance, WT + ISRIB vs WT, direction compared with DYT/WT.
In the case of B1, the “ISRIB and DYT Parallel Direction” value is recorded as “YES”.

Take B2: the “ISRIB and DYT Parallel Direction” value is “YES”.

As for B3, the “ISRIB and DYT Parallel Direction” value is on record as “YES”.

On to B4, for which the “ISRIB and DYT Parallel Direction” value is “YES”.

Turning to B5, the “ISRIB and DYT Parallel Direction” value is given as “YES”.

As for B6, the “ISRIB and DYT Parallel Direction” value is recorded as “YES”.

Turning to B7, the “ISRIB and DYT Parallel Direction” value is on record as “YES”.
